Consider 3 proteins from article PMC7968844.

Data set [1] can be described thus: FLAG pulldown, MS peptide reads. The settings on record: glycan lost; control: MCF7-WT cells.
The nature of data set [2]: CHX chase, Western blot, endogenous ERα. As to conditions: glycan lost; control: MCF7-WT cells, empty vector.
The nature of data set [3]: CHX chase, Western blot, MCF7-WT cells. The settings on record: glycan lost; control: ERα-WT in MCF7-WT cells.
A short description of data set [4]: CHX chase, Western blot, GREB1-KO cells. As to conditions: glycan lost; control: ERα-WT in GREB1-KO cells.
The nature of data set [5]: Western blot of ERα after GREB1 reconstitution. As to conditions: glycan gained; control: GREB1-KO cells + Vec.

B1: ERα (estrogen receptor α): GREB1-KO (protein)
parent chain: MTMTLHTKASGMALLHQIQGNELEPLNRPQLKIPLERPLGEVYLDSSKPAVYNYPEGAAYEFNAAAAANAQVYGQTGLPYGPGSEAAAFGSNGLGGFPPLNSVSPSPLMLLHPPPQLSPFLQPHGQQVPYYLENEPSGYTVREAGPPAFYRPNSDNRRQGGRERLASTNDKGSMAMESAKETRYCAVCNDYASGYHYGVWSCEGCKAFFKRSIQGHNDYMCPATNQCTIDKNRRKSCQACRLRKCYEVGMMKGGIRKDRRGGRMLKHKRQRDDGEGRGEVGSAGDMRAANLWPSPLMIKRSKKNSLALSLTADQMVSALLDAEPPILYSEYDPTRPFSEASMMGLLTNLADRELVHMINWAKRVPGFVDLTLHDQVHLLECAWLEILMIGLVWRSMEHPGKLLFAPNLLLDRNQGKCVEGMVEIFDMLLATSSRFRMMNLQGEEFVCLKSIILLNSGVYTFLSSTLKSLEEKDHIHRVLDKITDTLIHLMAKAGLTLQQQHQRLAQLLLILSHIRHMSNKGMEHLYSMKCKNVVPLYDLLLEMLDAHRLHAPTSRGGASVEETDQSHLATAGSTSSHSLQKYYITGEAEGFPATV
B1: in data set [1], the “other: ubiquitin associated with ERα” value was “increases”. In data set [2], the degradation_or_half_life entry is “decreases”.

B2: ERα (estrogen receptor α): ERα-2M (protein)
parent chain: MTMTLHTKASGMALLHQIQGNELEPLNRPQLKIPLERPLGEVYLDSSKPAVYNYPEGAAYEFNAAAAANAQVYGQTGLPYGPGSEAAAFGSNGLGGFPPLNSVSPSPLMLLHPPPQLSPFLQPHGQQVPYYLENEPSGYTVREAGPPAFYRPNSDNRRQGGRERLASTNDKGSMAMESAKETRYCAVCNDYASGYHYGVWSCEGCKAFFKRSIQGHNDYMCPATNQCTIDKNRRKSCQACRLRKCYEVGMMKGGIRKDRRGGRMLKHKRQRDDGEGRGEVGSAGDMRAANLWPSPLMIKRSKKNSLALSLTADQMVSALLDAEPPILYSEYDPTRPFSEASMMGLLTNLADRELVHMINWAKRVPGFVDLTLHDQVHLLECAWLEILMIGLVWRSMEHPGKLLFAPNLLLDRNQGKCVEGMVEIFDMLLATSSRFRMMNLQGEEFVCLKSIILLNSGVYTFLSSTLKSLEEKDHIHRVLDKITDTLIHLMAKAGLTLQQQHQRLAQLLLILSHIRHMSNKGMEHLYSMKCKNVVPLYDLLLEMLDAHRLHAPTSRGGASVEETDQSHLATAGSTSSHSLQKYYITGEAEGFPATV
Consider B2, for which the degradation_or_half_life result in data set [3] is recorded as “decreases”; in data set [4], “no change”.

B3: ERα (estrogen receptor α): GT-WT (protein)
parent chain: MTMTLHTKASGMALLHQIQGNELEPLNRPQLKIPLERPLGEVYLDSSKPAVYNYPEGAAYEFNAAAAANAQVYGQTGLPYGPGSEAAAFGSNGLGGFPPLNSVSPSPLMLLHPPPQLSPFLQPHGQQVPYYLENEPSGYTVREAGPPAFYRPNSDNRRQGGRERLASTNDKGSMAMESAKETRYCAVCNDYASGYHYGVWSCEGCKAFFKRSIQGHNDYMCPATNQCTIDKNRRKSCQACRLRKCYEVGMMKGGIRKDRRGGRMLKHKRQRDDGEGRGEVGSAGDMRAANLWPSPLMIKRSKKNSLALSLTADQMVSALLDAEPPILYSEYDPTRPFSEASMMGLLTNLADRELVHMINWAKRVPGFVDLTLHDQVHLLECAWLEILMIGLVWRSMEHPGKLLFAPNLLLDRNQGKCVEGMVEIFDMLLATSSRFRMMNLQGEEFVCLKSIILLNSGVYTFLSSTLKSLEEKDHIHRVLDKITDTLIHLMAKAGLTLQQQHQRLAQLLLILSHIRHMSNKGMEHLYSMKCKNVVPLYDLLLEMLDAHRLHAPTSRGGASVEETDQSHLATAGSTSSHSLQKYYITGEAEGFPATV
For B3, the expression_or_secretion result in data set [5] is given as “increases”.
